Here are results for five molecules from PMC12378399 (Metallomics : integrated biometal science, 2025).

Assay [1] deals with SufS (Escherichia coli) (UniProt P77444). The note with it: cited from earlier work.
Assay [2] has as its target SufBC2D (Escherichia coli) (UniProt P77522). As to the kind of experiment: surface plasmon resonance. The conditions noted are these: cited from earlier work.
Assay [3] addresses SufS (Escherichia coli) (UniProt P77444). The note with it: cited from earlier work. This is another data set of the same source.
For a further assay, the target named is SufS (with SufE) (Escherichia coli, UniProt P77444). The note with it: 50 mM MOPS pH 8.0, 150 mM NaCl, 2 mM TCEP, 500 μM L-cysteine, SufE 0.25-3 μM varied (not cysteine).
SufS (with SufE), sequence (P77444 whole entry, one chain of several): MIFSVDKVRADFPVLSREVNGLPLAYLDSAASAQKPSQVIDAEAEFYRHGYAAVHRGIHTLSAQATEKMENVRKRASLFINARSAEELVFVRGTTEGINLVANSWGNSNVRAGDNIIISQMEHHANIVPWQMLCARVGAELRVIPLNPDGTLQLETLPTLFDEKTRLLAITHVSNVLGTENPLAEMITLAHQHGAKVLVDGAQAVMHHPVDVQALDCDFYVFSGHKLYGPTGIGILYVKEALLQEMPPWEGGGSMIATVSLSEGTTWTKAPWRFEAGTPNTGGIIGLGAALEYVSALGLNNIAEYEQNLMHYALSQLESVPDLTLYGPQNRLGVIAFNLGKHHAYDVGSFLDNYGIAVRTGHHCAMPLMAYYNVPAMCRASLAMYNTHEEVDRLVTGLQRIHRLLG
Assay [4] deals with BODIPY-labeled SufE C51A/E107C (SufEDM) (E. coli) (UniProt P76194). As to the kind of experiment: fluorescence polarisation. On the technique in general: Polarisation of emitted light reports the rotation of a fluorescent probe.
For assay [5], the target named is SufBC2D scaffold complex (His6-SufBCD) (E. coli) (UniProt P77522). Description: steady-state enzyme inhibition.
SufBC2D scaffold complex (His6-SufBCD) (E. coli), sequence (P77522 whole entry, chain 1 of 3): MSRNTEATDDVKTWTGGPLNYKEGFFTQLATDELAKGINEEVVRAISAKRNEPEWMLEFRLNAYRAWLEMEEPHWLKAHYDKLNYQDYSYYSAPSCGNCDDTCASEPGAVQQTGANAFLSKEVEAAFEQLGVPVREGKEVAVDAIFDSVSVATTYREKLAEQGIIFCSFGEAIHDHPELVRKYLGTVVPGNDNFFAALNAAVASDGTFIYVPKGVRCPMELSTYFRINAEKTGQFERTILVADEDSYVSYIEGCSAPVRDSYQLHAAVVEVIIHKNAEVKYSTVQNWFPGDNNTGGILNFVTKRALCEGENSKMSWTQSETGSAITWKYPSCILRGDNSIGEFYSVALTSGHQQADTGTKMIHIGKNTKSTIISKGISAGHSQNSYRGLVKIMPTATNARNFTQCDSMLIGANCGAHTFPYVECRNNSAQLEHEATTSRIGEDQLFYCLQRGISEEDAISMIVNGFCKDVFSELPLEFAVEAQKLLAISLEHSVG
SufBC2D scaffold complex (His6-SufBCD) (E. coli), sequence (P77499 whole entry, chain 2 of 3, further chain): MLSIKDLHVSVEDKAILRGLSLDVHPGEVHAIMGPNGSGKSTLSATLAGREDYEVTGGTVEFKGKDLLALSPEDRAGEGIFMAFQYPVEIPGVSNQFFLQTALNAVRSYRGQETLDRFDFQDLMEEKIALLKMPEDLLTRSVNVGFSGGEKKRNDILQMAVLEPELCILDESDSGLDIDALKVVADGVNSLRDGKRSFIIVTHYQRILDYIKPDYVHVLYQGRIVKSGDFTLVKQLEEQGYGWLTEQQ
SufBC2D scaffold complex (His6-SufBCD) (E. coli), sequence (P77689 whole entry, chain 3 of 3, further chain): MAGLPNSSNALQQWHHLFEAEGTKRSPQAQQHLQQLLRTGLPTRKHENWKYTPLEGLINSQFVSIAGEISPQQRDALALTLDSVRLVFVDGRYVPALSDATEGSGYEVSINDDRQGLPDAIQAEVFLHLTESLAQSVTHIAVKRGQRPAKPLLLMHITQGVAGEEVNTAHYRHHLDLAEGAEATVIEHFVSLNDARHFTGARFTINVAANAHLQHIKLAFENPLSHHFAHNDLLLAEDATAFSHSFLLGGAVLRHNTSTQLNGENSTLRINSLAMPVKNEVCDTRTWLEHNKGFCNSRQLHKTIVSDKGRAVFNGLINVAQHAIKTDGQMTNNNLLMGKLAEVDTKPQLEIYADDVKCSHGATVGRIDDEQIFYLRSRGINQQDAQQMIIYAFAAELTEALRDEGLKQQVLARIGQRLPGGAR
Assay [6] shares this target.

Read-outs that look alike come from different tables or passages of the source.

SufS (Escherichia coli), sequence (P77444 whole entry): as the sequence (P77444 whole entry, one chain of several) above
SufBC2D (Escherichia coli), sequence (P77522 whole entry, chain 1 of 3): as the sequence (P77522 whole entry, chain 1 of 3) above
SufBC2D (Escherichia coli), sequence (P77499 whole entry, chain 2 of 3, further chain): as the sequence (P77499 whole entry, chain 2 of 3, further chain) above
SufBC2D (Escherichia coli), sequence (P77689 whole entry, chain 3 of 3, further chain): as the sequence (P77689 whole entry, chain 3 of 3, further chain) above

Turning to SufE (from UniProt P76194), the figures for the Kd (with SufS (Escherichia coli) [1]; in assay [2]; in the assay with SufS (Escherichia coli) [3]) were 5000 nM, 2800 nM and 500 nM, respectively. For the molecule `N[C@@H](CS)C(=O)O` [L-cysteine], the “NDA-alanine fluorescence detection of L-alanine produced” value at SufS (with SufE) is reported as “Cysteine desulfurase activity of SufS was measured by quantifying the amount of L-alanine produced”. On to “SufBC2D scaffold complex (His6-SufBCD) (from UniProt P77522 1-495; P77499 1-248; P77689 1-423)”, for which, in assay [4], the Kd was determined as 1600 nM.

B1: SufE (wildtype) (natural protein)
chain: MALLPDKEKLLRNFLRCANWEEKYLYIIELGQRLPELRDEDRSPQNSIQGCQSQVWIVMRQNAQGIIELQGDSDAAIVKGLIAVVFILYDQMTPQDIVNFDVRPWFEKMALTQHLTPSRSQGLEAMIRAIRAKAAALS
In turn, B1 registered a Ki in assay [5] of 1800 nM. Also, in assay [6], the IC50 of inhibition of SufBC2D ATPase activity in the presence of 500 μM Mg2+-ATP amounted to 1000 nM.

B2: Carbamidomethylated SufE (SufE-alk) (natural protein)
chain: B1 chain
modifications: C51 alkylated (carbamidomethylated with iodoacetamide)
B2 showed a Ki in assay [5] of 2500 nM. This counts as single-digit micromolar.

As usually defined, the Kd is the equilibrium constant for the complex coming apart. The term Ki denotes a measure of affinity in units of concentration, obtained from inhibition or displacement. A higher Ki goes with a looser hold on the target.
